In paper doi:10.1101/2021.08.02.454712 one finds Kd data, which are given here for one substance.

This test addresses recombinant Heme Detoxification Protein (PfHDP) (Plasmodium falciparum) (UniProt Q8IL04). As to the kind of experiment: SPR. For orientation: SPR reads the build-up and loss of mass on a sensor chip optically.

On to “recombinant C-terminal Plasmodium falciparum exportin 2 (Pfexp-2), amino acids 139-285 (domain or fragment)”, for which the Kd is 1100 nM.

Usually Kd stands for the free concentration of one partner at which half of the binding sites on the other are occupied at equilibrium, for simple one-to-one binding.
